Results taken from article PMC2018643 (Nucleic Acids Research, 2007).

Target: the molecule itself
Experiment: SEC

B1: His(6)-Rrp47p (natural protein, S. cerevisiae, UniProt P38801 1-184, looked up)
chain: MEDIEKIKPYVRSFSKALDELKPEIEKLTSKSLDEQLLLLSDERAKLELINRYAYVLSSLMFANMKVLGVKDMSPILGELKRVKSYMDKAKQYDNRITKSNEKSQAEQEKAKNIISNVLDGNKNQFEPSISRSNFQGKHTKFENDELAESTTTKIIDSTDHIRKASSKKSKRLDKVGKKKGGKK
- stoichiometry N: 6
